The values that follow come from patent publication US20250171534A1 (D2M BIOTHERAPEUTICS, published 2025).

The target in experiment [1] is T1, human LILRB1 expressed on cells (human, UniProt Q8NHL6 24-650).
T1 construct: In 293T cells it was expressed from pCMV3-LILRB1-GFP; also called CHO-LILRB1; Jurkat-LILRB1
In words: flow cytometry, Jurkat-LILRB1 cells; blocked ligand: APC HLA-G trimer tetramer.

Experiment [2] concerns the target T1, human LILRB1 expressed on cells. In words: flow cytometry, Jurkat-LILRB1 cells. (In general: Flow cytometry measures light scatter and fluorescence of single cells or particles in a stream.)
In experiment [3] the target is T2, human LILRB2 expressed on cells (human, UniProt Q8N423 22-597).
T2 construct: In 293T cells it was expressed from pCMV3-LILRB2-GFP; also called CHO-LILRB2; Jurkat-LILRB2
T2 sequence (Q8N423 other isoform, or with tags, fused parts or gaps limits assumed): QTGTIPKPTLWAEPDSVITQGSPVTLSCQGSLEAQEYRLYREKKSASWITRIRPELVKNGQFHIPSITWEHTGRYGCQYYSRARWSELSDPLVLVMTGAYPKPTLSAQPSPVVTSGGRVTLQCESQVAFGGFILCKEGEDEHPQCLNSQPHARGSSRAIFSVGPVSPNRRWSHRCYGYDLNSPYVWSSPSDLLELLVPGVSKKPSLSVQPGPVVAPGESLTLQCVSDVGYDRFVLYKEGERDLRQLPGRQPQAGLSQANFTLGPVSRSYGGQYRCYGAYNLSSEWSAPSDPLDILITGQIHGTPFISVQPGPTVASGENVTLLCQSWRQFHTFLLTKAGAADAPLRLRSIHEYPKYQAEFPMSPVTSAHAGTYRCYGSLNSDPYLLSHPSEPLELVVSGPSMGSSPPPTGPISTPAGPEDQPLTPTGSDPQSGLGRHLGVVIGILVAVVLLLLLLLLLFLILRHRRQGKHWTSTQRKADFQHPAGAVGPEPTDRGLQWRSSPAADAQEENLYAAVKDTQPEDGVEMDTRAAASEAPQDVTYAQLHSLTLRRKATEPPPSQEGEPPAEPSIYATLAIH
In words: flow cytometry, Jurkat-LILRB2 cells.

Experiment [4] addresses T2, human LILRB2 expressed on cells. In words: flow cytometry, Jurkat-LILRB2 cells; blocked ligand: APC HLA-G monomer tetramer.
For experiment [5], the target named is T3, LILRB2-ECD-HIS (SinoBiological Cat #: 14132-H02H) (human, UniProt Q8N423 22-460).
T3 construct: Bought protein; also called monomeric antigen LILRB2-ECD-HIS; not shown: His tag
T3 sequence (Q8N423 other isoform, or with tags, fused parts or gaps H02H H02H): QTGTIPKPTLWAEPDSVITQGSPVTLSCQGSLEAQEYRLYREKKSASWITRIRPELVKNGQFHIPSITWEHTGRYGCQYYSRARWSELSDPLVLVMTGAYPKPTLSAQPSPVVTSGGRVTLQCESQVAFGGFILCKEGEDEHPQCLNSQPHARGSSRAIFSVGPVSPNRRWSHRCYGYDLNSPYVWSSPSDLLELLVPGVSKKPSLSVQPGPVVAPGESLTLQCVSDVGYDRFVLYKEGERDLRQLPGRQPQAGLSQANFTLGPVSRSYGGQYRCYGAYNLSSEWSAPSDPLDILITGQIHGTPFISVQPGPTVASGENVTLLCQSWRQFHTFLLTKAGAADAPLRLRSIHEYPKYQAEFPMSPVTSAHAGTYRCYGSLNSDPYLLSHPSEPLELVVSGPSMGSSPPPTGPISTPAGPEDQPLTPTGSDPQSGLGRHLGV
In words: SPR (Carterra LSA), antibody captured, antigen injected.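 Further: kd obtained from kinetic analysis of antibody binding to the antigen, with association and dissociation phases fitted in the instrument software.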

Experiment [6] concerns the target T4, LILRB1-ECD-HIS (SinoBiological Cat #: 16014-H02H) (human, UniProt Q8NHL6 24-461).
T4 construct: Bought protein; also called monomeric antigen LILRB1-ECD-HIS; not shown: His tag
The experiment is described as above.

Experiment [7] has as its target T1, human LILRB1 expressed on cells. In words: flow cytometry, CHO-LILRB1 cells.
For experiment [8] the target is unchanged. Put plainly: flow cytometry, CHO-LILRB1 cells; blocked ligand: APC HLA-G trimer tetramer.
Experiment [9] has as its target T2, human LILRB2 expressed on cells. Put plainly: flow cytometry, CHO-LILRB2 cells.
In experiment [10] the target is T1, human LILRB1 expressed on cells. In words: flow cytometry, CHO-LILRB1 cells. This is another data set of the same source.

T1 sequence (Q8NHL6 other isoform, or with tags, fused parts or gaps limits assumed): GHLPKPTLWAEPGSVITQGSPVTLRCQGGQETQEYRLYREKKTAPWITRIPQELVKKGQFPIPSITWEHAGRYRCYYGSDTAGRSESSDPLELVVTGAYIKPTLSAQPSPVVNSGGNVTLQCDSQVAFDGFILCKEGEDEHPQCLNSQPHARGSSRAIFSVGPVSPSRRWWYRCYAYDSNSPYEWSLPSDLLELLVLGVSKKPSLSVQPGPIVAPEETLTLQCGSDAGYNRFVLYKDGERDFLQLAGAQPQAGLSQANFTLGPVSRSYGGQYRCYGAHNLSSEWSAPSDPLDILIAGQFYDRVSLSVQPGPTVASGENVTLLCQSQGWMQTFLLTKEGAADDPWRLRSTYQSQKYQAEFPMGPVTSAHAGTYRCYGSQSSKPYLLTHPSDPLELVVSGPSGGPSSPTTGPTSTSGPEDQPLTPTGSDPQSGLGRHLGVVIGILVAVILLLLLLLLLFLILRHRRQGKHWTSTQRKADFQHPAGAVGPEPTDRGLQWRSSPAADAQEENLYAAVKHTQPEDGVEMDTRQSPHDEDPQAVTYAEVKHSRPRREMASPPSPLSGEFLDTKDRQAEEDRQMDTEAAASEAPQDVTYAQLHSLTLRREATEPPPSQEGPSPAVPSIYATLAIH
T4 sequence (Q8NHL6 other isoform, or with tags, fused parts or gaps H02H H02H): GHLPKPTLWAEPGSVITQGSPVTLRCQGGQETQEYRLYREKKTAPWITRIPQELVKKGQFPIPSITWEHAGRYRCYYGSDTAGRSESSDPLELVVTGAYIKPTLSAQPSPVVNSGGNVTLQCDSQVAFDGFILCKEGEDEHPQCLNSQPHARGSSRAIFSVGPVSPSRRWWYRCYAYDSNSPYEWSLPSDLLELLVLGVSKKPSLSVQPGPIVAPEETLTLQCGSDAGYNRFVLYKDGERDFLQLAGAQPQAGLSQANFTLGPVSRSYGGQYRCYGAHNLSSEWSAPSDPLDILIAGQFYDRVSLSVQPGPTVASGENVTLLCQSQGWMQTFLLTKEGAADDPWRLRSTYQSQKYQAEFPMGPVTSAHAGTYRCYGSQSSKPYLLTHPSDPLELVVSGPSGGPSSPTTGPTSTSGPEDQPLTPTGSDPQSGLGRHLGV

B1: D2M002-101 (antibody, V domains shown)
VH: QVQLVQSGAEVKKPGASVKVSCKASGYTFTRYVMHWVRQAPGQRLEWMGWINPNNEETKYSQKFKGRVTLTRDTSASTAYMELSSLRSEDTAVYYCARADLEILPYYDHARNAMDYWGQGTLVTVSS
VL: DIQMTQSPSSVSASVGDRVTITCRASENIYSHLAWYQQKPGKAPKLLVYNAKSLQSGVPSRFSGSGSGTDFTLTISSLQPEDFATYYCQHFWSTPPTFGGGTKVEIK
notes: humanized and optimized variant tested beside D2M002-002; also called P211_A12
For the molecule B1, the IC50 (in general, the midpoint of a concentration-inhibition curve) was determined as 0.138 µg/mL in experiment [1] and 0.025 µg/mL in experiment [4]. Also, the EC50 (usually the concentration at which the effect is half-maximal) came to 0.201 µg/mL in experiment [2] and 0.131 µg/mL in experiment [3].

B2: D2M002-122 (antibody, V domains shown)
VH: QVQLVQSGAEVKKPGASVKVSCKASGYTFTSYWIEWVRQAPGQGLEWIGEILPGEGSTNYNAKFKGRVTFTTDTSTSTAYMELRSLRSDDTAVYYCARSGAGGYDSGAFAYWGQGTLVTVSS
VL: AIQLTQSPSSLSASVGDRVTITCRASESVDTYGNSFMHWYQQKPGKAPKLLVYRTSNLESGVPSRFSGSGSGTDFTLTISSLQPEDFATYYCQQSNEDPWTFGGGTKVEIK
Turning to B2, the IC50 in experiment [1] worked out at 0.501 µg/mL; in [4] it was 0.022 µg/mL. Also, the EC50 came to 1.6 µg/mL in experiment [2] and 0.111 µg/mL in [3].

B3: D2M002-124 (antibody, V domains shown)
VH: QVQLVQSGAEVKKPGASVKVSCKASGYTFTSYWIEWVRQAPGQGLEWIGEILPGSGSTNYNAKFKGRVTFTTDTSTSTAYMELRSLRSDDTAVYYCARSGAGGYDSGAFAYWGQGTLVTVSS
VL: AIQLTQSPSSLSASVGDRVTITCRASESVDTYGNSFMHWYQQKPGKAPKLLVYRTSNLESGVPSRFSGSGSGTDFTLTISSLQPEDFATYYCQQSNEDPWTFGGGTKVEIK
As to B3, the results for the IC50 in experiment [1] and in experiment [4] were 0.427 µg/mL and 0.03 µg/mL, respectively. For the same molecule, the figures for the EC50 in experiment [2] and in [3] were 1.86 µg/mL and 0.145 µg/mL, respectively.

B4: #11 (antibody, human IgG1, V domains shown)
VH: EVQLQQSGAELMKPGASVKISCKATGYTFSNYWIEWVKQRPGHGLEWIGEILPGSGSTDYNEKFEGKATFTADTSSNTAYMQLSSLTSEDSAVYYCARSGAGGYDSGAFAYWGQGTLVTVSA
VL: DIQMTQSPASLAVSLGQRATISCRASESVDTYGNSFMHWYQQKPGQPPKLLIYRTSNLESGIPARFSGSGSRTDFTLTINPVEADDVATYYCQQSNEDPWTFGGGTKLEIK
notes: also called D2M002-011
In the case of B4, the Kd (as a rule, the free concentration of one partner at which half of the binding sites on the other are occupied at equilibrium, for simple one-to-one binding) in experiment [5] is 0.0213 nM; in [6] it was 0.417 nM. Besides, the values for the EC50 in experiment [7], in experiment [9] and in experiment [10] were 1.46 µg/mL, 1.2 µg/mL and 1.13 µg/mL, respectively. Moreover, the “gMFI (max)” value in experiment [7] turned out to be 40000; in [9], 21600. This molecule came in with an IC50 in experiment [8] of 0.367 µg/mL.

B5: #27 (antibody, human IgG1, V domains shown)
VH: EVQLQQSGAELMKPGASVKISCKITGYTFSSYWIEWVKQRPGHDLEWIGEILPGSGSTNYNEKFKGKASFTADTSSNTAYMQLNSLTSEDSAVYYCARSGAGGYDSGAFAYWGQGTLVTVSA
VL: DIVLTQSPASLAVSLGQRATISCRASESVDTYGNSFMHWYQQKPGQPPKLLIYRTSNLESGIPARFSGSGSRTDFTLTINPVEADDVATYYCQQSNEDPWTFGGGTKLEIK
notes: also called D2M002-027
Consider B5, for which the Kd came to 0.0481 nM in experiment [5] and 0.556 nM in experiment [6]. Besides, the EC50 in [7] was 1.02 µg/mL; in experiment [9], 0.435 µg/mL; in experiment [10], 1.72 µg/mL. The “gMFI (max)” value turned out to be 35700 in [7] and 23900 in experiment [9]. The same molecule returned an IC50 in experiment [8] of 0.569 µg/mL.

B6: #22 (antibody, human IgG1, V domains shown)
VH: QVQLQQSGAELMKPGASVKISCKATGYTLSSYWIEWVKQRPGHGLEWIGEILPGSGSTNYNEKFKGKATFTADTSSNTAYMQLSSLTSEDSAVYYCARSGAGGYDSGAFAYWGQGTLVTVSA
VL: DIVLTQSPASLAVSLGQRATISCRASESVDTYGNSFMHWYQQKPGQPPKLLIYRTSNLESGIPARFSGSGSRTDFTLTINPVEADDVATYYCQQSNEDPWTFGGGTKLEIK
notes: also called D2M002-022
With B6, the Kd in experiment [5] was 0.0323 nM; in experiment [6], 0.588 nM. The EC50 in experiment [7] came out at 1.99 µg/mL; in [9], 0.911 µg/mL; in [10], 2.01 µg/mL. In addition, the “gMFI (max)” value turned out to be 49300 in experiment [7] and 26300 in [9]. Also, in experiment [8], the IC50 turned out to be 0.758 µg/mL.
